Data taken from paper PMC8880771, “Therapeutic antibody activation of the glucocorticoid-induced TNF receptor by a clustering mechanism” (Science Advances, 2022).
Substitutions are numbered along the chain they refer to. Names and notes keep the numbering of the source.

B1: full-length mouse GITR ligand (mGITRL) (ligand, UniProt Q7TS55 1-173, looked up)
chain: MEEMPLRESSPQRAERCKKSWLLCIVALLLMLLCSLGTLIYTSLKPTAIESCMVKFELSSSKWHMTSPKPHCVNTTSDGKLKILQSGTYLIYGQVIPVDKKYIKDNAPFVVQIYKKNDVLQTLMNDFQILPIGGVYELHAGDNIYLKFNSKDHIQKTNTYWGIILMPDLPFIS
notes: mouse GITRL, full-length gene with transmembrane region, in pEZT-BM; the oligomeric state of the full-length protein was not measured here; source: HEK293S GnTI- suspension cells (BacMam), solubilized in DDM, purified (StrepTrap HP, Superose 6)
B2: full-length mouse GITR fused to EGFP at its C terminus (mGITR_(egfp)), purified (receptor, UniProt O35714 20-228, looked up)
chain: QPSVVEEPGCGPGKVQNGSGNNTRCCSLYAPGKEDCPKERCICVTPEYHCGDPQCKICKHYPCQPGQRVESQGDIVFGFRCVACAMGTFSAGRDGHCRLWTNCSQFGFLTMFPGNKTHNAVCIPEPLPTEQYGHLTVIFLVMAACIFFLTTVQLGLHIWQLRRQHMCPRETQPFAEVQLSAEDACSFQFPEEERGEQTEEKCHLGGRWP
modifications: intersubunit disulfide bond at Cys55
notes: signal peptide in the construct; mouse GITR, full-length gene in pEZT-BM, followed by a thrombin cleavage site, EGFP and 8x His; Cys14 lies in the predicted signal peptide and is not in the mature protein; last residue P228; Disulfide-linked dimer by cryo-EM; EGFP fluorescence was monitored in FSEC; also called glucocorticoid-induced TNF receptor; source: HEK293S GnTI- suspension cells (BacMam), …
B3: full-length mGITR_(egfp) with C-terminal 1D4 tag, in HEK293 lysate (receptor, mouse, UniProt O35714 20-228, looked up)
chain: B2 chain
modifications: intersubunit disulfide bond at Cys55
notes: signal peptide in the construct; mouse GITR, full length (to P228), followed by EGFP and a 1D4 tag; May be the same construct as m1; the methods name an 8x His tag for the purified protein, the results a 1D4 tag for all constructs analysed in lysate; source: HEK293 cells, solubilized with DDM, in lysate; not shown: EGFP, C-terminal, kept; 1D4, C-terminal, kept
B4: mGITR_(ΔCTD-egfp) (domain or fragment, mouse, UniProt O35714 20-185, looked up)
chain: QPSVVEEPGCGPGKVQNGSGNNTRCCSLYAPGKEDCPKERCICVTPEYHCGDPQCKICKHYPCQPGQRVESQGDIVFGFRCVACAMGTFSAGRDGHCRLWTNCSQFGFLTMFPGNKTHNAVCIPEPLPTEQYGHLTVIFLVMAACIFFLTTVQLGLHIWQLRRQHM
notes: signal peptide in the construct; mouse GITR without the unstructured C-terminal residues C186-P228; also called CTD deletion construct; source: HEK293 cells, solubilized with DDM, in lysate; not shown: EGFP, C-terminal, kept; 1D4, C-terminal, kept
B5: mGITR_(ΔCTD-egfp)-C164A (domain or fragment, mouse, UniProt O35714 20-185, looked up)
chain: B4 chain with C145A
notes: signal peptide in the construct; mouse GITR without the C-terminal residues C186-P228, with C164A; also called C164A mutant; source: HEK293 cells, solubilized with DDM, in lysate; not shown: EGFP, C-terminal, kept; 1D4, C-terminal, kept

Columns and labels:
[1] = molecular target: B2; assay: SEC; FSEC of purified proteins mixed with mGITR_(egfp), EGFP fluorescence (tryptophan fluorescence as control), Superose 6 Increase 10/300 GL, 20 mM tris pH 8.0, 300 mM NaCl, 0.5 mM DDM; molar ratio 1:15:4:2 for mGITR_(egfp):mGITRL:Fab:IgG; settings: both partners purified
[2] = molecular target: the molecule itself; assay: cryo-EM structure; mGITR_(egfp)/DTA-1 Fab complex in DDM, single-particle cryo-EM, global resolution 4.4 Å
[3] = molecular target: the molecule itself; assay: non-reducing SDS-PAGE with anti-1D4 Western blot; lysate, nonreduced (-DTT); denaturing SDS-PAGE, shows only covalent dimers

Row | Binder | stoichiometry N [3] | also measured
1 | B1 | – | binding result [1]: binds
2 | B2 | – | stoichiometry N [2]: 2
3 | B3 | 2 | –
4 | B4 | 2 | –
5 | B5 | 2 | –
